The target of test [1] is smc1p-T1117I cohesin (S. cerevisiae) (UniProt P32908).
The target of test [2] is cohesin with Smc1p-D1164E (S. cerevisiae) (UniProt P32908).
In test [3] the target is cohesin with Smc1p-T1117W (S. cerevisiae) (UniProt P32908).

Chain of smc1p-T1117I cohesin (S. cerevisiae) (P32908 whole entry T1117I, chain 1 of 4): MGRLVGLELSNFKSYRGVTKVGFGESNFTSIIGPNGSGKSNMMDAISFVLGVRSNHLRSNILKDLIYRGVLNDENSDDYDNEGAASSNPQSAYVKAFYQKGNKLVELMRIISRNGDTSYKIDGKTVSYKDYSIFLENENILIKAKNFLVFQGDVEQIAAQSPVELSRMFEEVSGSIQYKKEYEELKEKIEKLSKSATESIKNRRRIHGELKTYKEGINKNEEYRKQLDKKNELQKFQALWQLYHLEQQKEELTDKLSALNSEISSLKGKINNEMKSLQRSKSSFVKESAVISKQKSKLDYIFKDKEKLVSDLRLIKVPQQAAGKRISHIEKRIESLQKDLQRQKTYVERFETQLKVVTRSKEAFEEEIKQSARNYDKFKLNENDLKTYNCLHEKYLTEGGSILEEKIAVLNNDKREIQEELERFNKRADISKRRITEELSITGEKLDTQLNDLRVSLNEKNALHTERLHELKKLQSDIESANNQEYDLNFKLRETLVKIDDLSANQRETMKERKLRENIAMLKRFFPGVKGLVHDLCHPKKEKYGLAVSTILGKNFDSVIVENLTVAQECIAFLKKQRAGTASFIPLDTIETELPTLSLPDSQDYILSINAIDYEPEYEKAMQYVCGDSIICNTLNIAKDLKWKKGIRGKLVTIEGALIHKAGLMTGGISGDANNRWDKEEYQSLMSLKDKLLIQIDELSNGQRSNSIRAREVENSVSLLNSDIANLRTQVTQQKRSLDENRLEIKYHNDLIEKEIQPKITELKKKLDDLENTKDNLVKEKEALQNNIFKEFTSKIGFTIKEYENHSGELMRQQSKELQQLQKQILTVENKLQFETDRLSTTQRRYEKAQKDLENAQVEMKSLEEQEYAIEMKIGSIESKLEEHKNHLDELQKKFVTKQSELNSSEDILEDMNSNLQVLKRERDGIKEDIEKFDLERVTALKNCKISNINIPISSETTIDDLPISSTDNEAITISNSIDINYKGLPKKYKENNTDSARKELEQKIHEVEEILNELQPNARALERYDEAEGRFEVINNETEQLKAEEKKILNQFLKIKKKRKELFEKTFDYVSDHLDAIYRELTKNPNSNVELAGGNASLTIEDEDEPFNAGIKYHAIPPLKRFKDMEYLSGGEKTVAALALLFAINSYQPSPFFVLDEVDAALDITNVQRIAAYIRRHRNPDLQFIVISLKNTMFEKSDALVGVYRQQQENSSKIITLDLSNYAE
Chain of smc1p-T1117I cohesin (S. cerevisiae) (P47037 whole entry, chain 2 of 4, further chain): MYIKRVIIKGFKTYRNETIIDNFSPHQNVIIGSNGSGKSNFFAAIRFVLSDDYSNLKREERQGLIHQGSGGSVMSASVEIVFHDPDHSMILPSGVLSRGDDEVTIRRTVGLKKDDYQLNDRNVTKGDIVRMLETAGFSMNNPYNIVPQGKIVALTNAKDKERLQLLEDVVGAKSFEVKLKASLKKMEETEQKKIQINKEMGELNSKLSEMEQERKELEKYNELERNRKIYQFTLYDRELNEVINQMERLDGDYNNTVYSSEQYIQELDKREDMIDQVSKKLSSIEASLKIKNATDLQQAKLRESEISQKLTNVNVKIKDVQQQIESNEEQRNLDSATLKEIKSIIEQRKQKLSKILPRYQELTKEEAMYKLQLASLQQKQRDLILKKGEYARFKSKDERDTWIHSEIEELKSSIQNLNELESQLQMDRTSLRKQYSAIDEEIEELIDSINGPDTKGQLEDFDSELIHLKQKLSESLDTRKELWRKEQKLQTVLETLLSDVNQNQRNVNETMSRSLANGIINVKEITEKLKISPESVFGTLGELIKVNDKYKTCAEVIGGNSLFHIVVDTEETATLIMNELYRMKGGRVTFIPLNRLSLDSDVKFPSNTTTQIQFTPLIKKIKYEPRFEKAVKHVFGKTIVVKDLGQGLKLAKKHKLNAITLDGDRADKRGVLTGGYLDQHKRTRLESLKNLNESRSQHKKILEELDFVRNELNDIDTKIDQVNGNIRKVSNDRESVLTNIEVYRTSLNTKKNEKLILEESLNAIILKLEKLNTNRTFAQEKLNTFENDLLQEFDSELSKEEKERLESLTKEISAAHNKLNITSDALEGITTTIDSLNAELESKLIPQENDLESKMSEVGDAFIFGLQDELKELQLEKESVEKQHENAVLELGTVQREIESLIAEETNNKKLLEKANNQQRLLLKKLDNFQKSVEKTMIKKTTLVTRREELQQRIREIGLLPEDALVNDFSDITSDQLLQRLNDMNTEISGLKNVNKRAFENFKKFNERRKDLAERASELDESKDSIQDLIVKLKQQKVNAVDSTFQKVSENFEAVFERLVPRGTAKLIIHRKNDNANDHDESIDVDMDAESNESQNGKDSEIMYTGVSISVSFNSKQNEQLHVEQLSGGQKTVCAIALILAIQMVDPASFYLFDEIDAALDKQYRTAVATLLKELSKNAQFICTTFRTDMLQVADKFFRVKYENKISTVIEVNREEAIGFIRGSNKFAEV
Chain of smc1p-T1117I cohesin (S. cerevisiae) (Q12158 whole entry, chain 3 of 4, further chain): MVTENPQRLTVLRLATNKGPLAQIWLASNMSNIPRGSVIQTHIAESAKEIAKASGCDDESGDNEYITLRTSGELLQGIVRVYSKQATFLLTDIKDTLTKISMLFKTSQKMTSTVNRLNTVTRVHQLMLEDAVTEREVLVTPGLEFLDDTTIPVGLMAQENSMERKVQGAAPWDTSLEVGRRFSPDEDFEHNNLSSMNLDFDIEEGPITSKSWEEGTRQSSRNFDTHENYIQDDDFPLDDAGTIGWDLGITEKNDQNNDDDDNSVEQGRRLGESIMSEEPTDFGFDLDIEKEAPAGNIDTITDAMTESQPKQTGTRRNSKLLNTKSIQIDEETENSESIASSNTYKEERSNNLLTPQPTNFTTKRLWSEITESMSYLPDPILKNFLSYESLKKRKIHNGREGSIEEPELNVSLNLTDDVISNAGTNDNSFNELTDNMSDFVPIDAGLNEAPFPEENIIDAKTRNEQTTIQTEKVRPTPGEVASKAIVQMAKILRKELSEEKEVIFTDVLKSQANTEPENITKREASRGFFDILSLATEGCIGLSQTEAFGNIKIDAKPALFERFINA
Chain of smc1p-T1117I cohesin (S. cerevisiae) (P40541 whole entry, chain 4 of 4, further chain): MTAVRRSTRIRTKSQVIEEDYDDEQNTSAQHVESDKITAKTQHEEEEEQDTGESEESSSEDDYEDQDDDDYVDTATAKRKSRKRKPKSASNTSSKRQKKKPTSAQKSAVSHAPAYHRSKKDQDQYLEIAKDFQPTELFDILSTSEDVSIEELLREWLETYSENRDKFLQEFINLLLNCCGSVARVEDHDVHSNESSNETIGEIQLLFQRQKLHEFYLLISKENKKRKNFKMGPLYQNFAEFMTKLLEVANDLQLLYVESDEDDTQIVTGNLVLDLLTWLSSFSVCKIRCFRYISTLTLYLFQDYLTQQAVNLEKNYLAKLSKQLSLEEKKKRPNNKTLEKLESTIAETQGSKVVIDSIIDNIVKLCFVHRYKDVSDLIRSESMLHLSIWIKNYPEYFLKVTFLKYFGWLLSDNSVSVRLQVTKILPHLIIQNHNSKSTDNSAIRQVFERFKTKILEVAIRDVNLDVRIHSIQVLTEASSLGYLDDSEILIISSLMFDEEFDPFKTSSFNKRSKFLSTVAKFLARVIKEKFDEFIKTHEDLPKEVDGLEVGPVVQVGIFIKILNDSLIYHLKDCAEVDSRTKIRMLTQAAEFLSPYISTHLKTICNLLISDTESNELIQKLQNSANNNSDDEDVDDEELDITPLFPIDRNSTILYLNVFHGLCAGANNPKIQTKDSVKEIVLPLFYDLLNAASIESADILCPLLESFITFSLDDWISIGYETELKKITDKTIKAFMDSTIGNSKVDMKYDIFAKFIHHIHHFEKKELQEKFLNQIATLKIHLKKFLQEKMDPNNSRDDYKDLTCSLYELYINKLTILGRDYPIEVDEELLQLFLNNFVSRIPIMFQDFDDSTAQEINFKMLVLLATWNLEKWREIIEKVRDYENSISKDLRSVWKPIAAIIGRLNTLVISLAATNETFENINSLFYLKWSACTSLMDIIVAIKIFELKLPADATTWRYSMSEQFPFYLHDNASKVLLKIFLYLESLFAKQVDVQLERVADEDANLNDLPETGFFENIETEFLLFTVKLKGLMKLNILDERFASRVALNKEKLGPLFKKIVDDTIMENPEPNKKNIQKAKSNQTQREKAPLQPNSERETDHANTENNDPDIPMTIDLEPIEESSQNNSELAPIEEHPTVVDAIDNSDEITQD

“Scc2p/Scc4p (cohesin loader) (from UniProt Q04002 1-1493; P40090 1-624) (complex)”: the ATPase activity of purified cohesin in the presence of DNA with Scc2p, against wild-type cohesin with Scc2p; EnzChek phosphate assay (% greater than wild-type cohesin) in test [1] is 50. Also, the ATPase activity of purified cohesin in the presence of DNA, induction by Scc2p against that of wild-type cohesin; EnzChek phosphate assay (fold less than wild type) in test [2] and in test [3] was 2 in each case.

The values are drawn from article PMC10153460.
